Test results as given in patent KR20230076376A.

B1: anti-Gc (ectodomain) 변이체 Fab 클론 Gc-3-1E12 (Fab, V domains shown)
VH: EVQLVESGGGLVQPGGSLRLSCAASGFTFSDYAMHWVRQAPGKGLEWVSGISSSGGSTFYADSVKGRFTISRDNSKNTLYLQMNSLRAEDTAVYYCAKWEWGYQERKWAFDLWGQGTLVTVSS
VL: DIQMTQSPSSLSASVGDRVTITCRASQSISNYLNWYQQKPGKAPKLLIYATSSLQSGVPSRFSGSGSGTDFTLTISSLQPEDFATYYCQQTYSFPWTFGQGTKVEIK
B2: anti-Gc (ectodomain) 변이체 Fab 클론 Gc-4-1C8 (Fab, V domains shown)
VH: EVQLVESGGGLVQPGGSLRLSCAASGFTFSDYAMNWVRQAPGKGLEWVSSISSSGSSTYYADSVKGRFTISRDNSKNTLYLQMNSLRAEDTAVYYCAKVKWRQSTSEYFDYWGQGTLVTVSS
VL: DIQMTQSPSSLSASVGDRVTITCRASQTISNYLNWYQQKPGKAPKLLIYAASTLQSGVPSRFSGSGSGTDFTLTISSLQPEDFATYYCQQSYSFPWTFGQGTKVEIK
B3: anti-Gc (ectodomain) 변이체 Fab 클론 Gc-b3-1E2 (Fab, V domains shown)
VH: EVQLVESGGGLVQPGGSLRLSCAASGFTFSNYAMNWVRQAPGKGLEWVSAISGSGSSTYYADSVKGRFTISRDNSKNTLYLQMNSLRAEDTAVYYCAKQFYVGQWLSGWFDVWGQGTLVTVSS
VL: DIQMTQSPSSLSASVGDRVTITCRASQSISNYLNWYQQKPGKAPKLLIYATSRLQSGVPSRFSGSGSGTDFTLTISSLQPEDFATYYCQQSYSFPWTFGQGTKVEIK

Molecular target: SFTSV Gc 변이체 (Severe Fever with Thrombocytopenia Syndrome Virus)

Question: Which EC50 does the source give for B1 here?
Answer: 6 nM

Question: How did the EC50 turn out when B2 was run?
Answer: 157 nM

Question: B3 was tested. Which EC50 did it give?
Answer: 89 nM
